Experimental data reported in patent US20220119522A1.
Where a chain is given by its changes, count along the chain named.

B1: CL0020139 (antibody, V domains shown)
VH: EVQLQQSGPELVKPGASVKMSCKAPGYSFTSYLMNWVKQKPGQGLEWIGYINPYSAGSNYNEKFKDKATLTSDKSSSTAYMELRSLTSEDSAVYFCARSSYRYGFDYWGQGTTLTVSS
VL: DIQMTQSSSSFSVSLGDRVTITCKASEDIYNRLAWYQQKPGNAPRLLISGATSLETGVPSRFSGSGSGKDYTLSITSLQTEDVATYSCQQYWSTPWTFGGGTKLEIK
B2: CL0020120 (antibody, V domains shown)
VH: EVQLQQSGPELVRTGASVKISCRASSYSFTDNYIHWVKQTHGRSLEWIGYISGYTGATSYNQKFKGKATFTVDTSSSTAYMQFNSLTSEDSAVYYCARSTMIAPYGMDYWGQGTSVTVSS
VL: DIVMTQSHKFMSTSVGDRVNITCKASQDVVTAVAWYQQKPGQSPKLLIYWASTRHTGVPDRFTGSGSGTDFTLTISNVQSEDLADYFCQQYSRYPLTFGAGTKLELK
B3: CL0020206 (antibody, V domains shown)
VH: EVQLQQSGPVLVKPGASVKMSCKASGYTFTDYYMNWVKQSHGKSLEWIGIINPYSGGISYNQKFKGKAILTVDKSSSTAYMELNSLTSEASAVYYCTRRNWDGRYAMDYWGQGTSVTVSS
VL: B2 VL with N20S, C23Y, V30G, T31S, A51T, R93S, L96F, A100G, L106I
B4: CL0020127 (antibody, V domains shown)
VH: B3 VH with T28K, I50T, I69T
VL: B2 VL with N20S, V30S, D85E, R93S, L96F, A100G, L106I
B5: CL0020113 (antibody, V domains shown)
VH: QIQLVQSGPELKKPGESLKISCKASGYTFTDYAMQWVKQAPGKGLQYMGWINTQTGKPTYADDFKERFVFSLETSASTAYLKINNLKNDDMATYLCARSYGGEYNWIAYWGQGTLVTVSS
VL: DIVMTQTPSSQAVSAGEKVTMNCKSSQSLLYNENKKNYLAWYQQKPGQSPKLLIYWASTRESGVPDRFIGSGSGTDFTLTISSVQAEDLAVYYCQQSYNFPPTFGGGTKLELK
B6: CL0020201 (antibody, V domains shown)
VH: EVQLQQSGPVLVKPGASVRMSCKPSGYTFTDYYMNWVKQSHGKSLEWIGSINPYTGGSSYNQNFRGKATLTVDKSSSTAYMELNSLTSEDSAVYYCARGSYYSNLGFAYWGQGTLVTVSA
VL: DVQLTQSPSFLTASPGETITINCRASKSISKYLAWYQEKPGKTNKLLISSGSTLQSGIPSRFSGSGSGTDFTLTISSLEPEDFAMYYCQQYSEYPFTFGSGTKLEIK
B7: CL0020164 (antibody, V domains shown)
VH: EVKLLESGGGLVQPGGSLRLSCAASGFTFTDFYMSWIRQPPGKAPEWLGVIRNKANGFTTEYNTSVKGRFTISRDYTQNILHLQTNTLRAEDTAIYYCARLTYGFDYWGQGVMVTVSS
VL: DIVMTQGALPNPVPSGESASITCQSSKSLLHSNGKTYLNWYLQRPGQSPQFLIYWMSTRASGVSDRFSGSGSGTDFTLKISSVEAEDVGVYYCQQFLELPFTFGSGTKLEIK
B8: CL0020103 (antibody, V domains shown)
VH: EVQLQQSGPELVKPGASVKISCKTSGYTFTEYTMHWVKESHGKSLEWIGGINPNKGGSSYNQKFKGKATLTVDKSSSTAYMDLRRLTSEDSAVYYCARGGYEYYALDYWGQGTSVTVSS
VL: DIVMSQSPSSLTVSVGERVTMSCKSSQSLLYSRNQKNYLAWYQQKPGQSPKLLIYWASTRESGVPDRFTGSGSGTDFSLTISSVKAEDLAVYYCQQYYSYPPTFGGGTKLEIK
B9: CL0020162 (antibody, V domains shown)
VH: QIQLVQSGPELKKPGESLKISCKASGYTFTDYAMQWVKQAPEKGLQYMGWINTQTGKPTYADDFKERFVFSLETSATTAYLQINNLKNEDMATYFCVRSYNNYENWFAYWGQGTLVTVSS
VL: DIVMTQSPSSLAVSAGETVTINCKSSQSLLYSGNQKNYLAWYQQKPGQSPKVLIYWASTRQFGVPDRFIGSGSGTDFTLTISSVQAEDLAIYYCQQYYNSPITFGSGTKLEIK
B10: CL0020186 (antibody, V domains shown)
VH: EVQLVESGGGLVQPGRSLKLSCPASGFTFSYYGMAWVRQAPTKGLEWVASISTGGGNTYYRDSVKGRFTISRDNAKNTLYLQMDSLRSEDTATYYCARGDIGTAYWFTYWGQGTLVTVSS
VL: NIQLTQSPSLLSASVGDRVTLSCKGSQNINNYLAWYQQKLGEAPKLLIYKTNSLLTGIPSRFSGSGSGTDYTLTISSLHSEDLATYYCYQYNNGWTFGGGTKLELK
B11: CL0020109 (antibody, V domains shown)
VH: EVQLQQSGPVLVKPGASLKMSCRASGYTFTDYYVHWVKQSHGKSLEWIGLINPYTGTTSYNQRFKGKATLTVDKSSSTAYMEVNSLTSEDSAVYYCARSRVYYGSSLFAFWGQGTLVTVSA
VL: DIVMTQSPSSLSVSAGEKVTMSCKSSQSLLNSGNQKNYLAWYQQKPGQPPKLLIYGASTRESGVPDRFTGSGSGTDFTLTISSVQAEDLAVYYCQNDHSYPYTFGGGTKLEIK
B12: CL0020205 (antibody, V domains shown)
VH: B11 VH with L18V, R23K, K65R, G66V
VL: B11 VL
B13: CL0020123 (antibody, V domains shown)
VH: EVQLQQSGAELVRSGASVKLSCTASGFSIEDFYIHWVKQRPEQGLEWIGWIDPENGDSKYAPKFQGKATMTADTSSNTAYLHLSSLTSEDTAVYYCHADHGNYGSTMDYWGQGTSVTVSS
VL: DIQMNQSPSSLSASLGDTVTITCHASQHINVWLSWYQQKPGDHPKLLIYKASNLHTGVPSRFSGSGSGTGFTLTISSLQPEDIATYYCQQGQTYPRTFGGGTKLEIK
B14: CL0020161 (antibody, V domains shown)
VH: EVQLVESGGGLVQPGRSMKLSCAALGFTFSNYYMAWVRQAPRKGLEWVASISTGGDNTYYRDSVKGRFTISRDNAKSTLYMQMDSLRSEDTATYYCVRSFIVGTTGYYFDYWGQGVMVTVSS
VL: DIVLTQSPALAVSLGQRATISCKTNQNVDYYGNNYMHWYQQTPGQQPKLLIYFASNLASGIPARFSGRGSGTDFTLTIDPVEADDTATYYCQQSRNLPTFGGGTKLELK
B15: CL0020195 (antibody, V domains shown)
VH: EVQLVESGGGLVQPGRSMMLSCSASGFTFSNYHMAWVRQAPTTGLEWVASITTGSGNTYYRHSVKGRFTISRDNAKSTLYLQMDSLRSEDTASYYCARRWYGGYEGYYFDYWGQGVMVTVSS
VL: DIQMTQSPSLLSASVGDRVTLSCKAGQNVNNYLAWYQQKLGEAPKLLIYNANILQTGFPSRFSGTGSGTDFTLTISSLQPEDVATYFCQQYNSWTTFGGGTKLELK
B16: CL0020313 (antibody, V domains shown)
VH: QVQLKQSGPGLLQPSQSLSITCTVSGFSLTSYGVHWVRQSPGKGLEWLGVIWSGGITLYNAAFMSRLSITKDNSKSQVFFKMNSLQADDTAIYYCAKVGYGSSSDYWGQGTTLTVSS
VL: DVLMTQSPLSLPVSLGDQASFSCRSSQSIVHSNGNTYLEWYLQKPGQSPKLLIYKVSNRFSGVPDRFSGSGSGTDFTLKISRVEAEDLGVYYCFQGSHVPFTFGSGTKLEIK
B17: CL0020173 (antibody, V domains shown)
VH: EVKLLESGGGLVQPGSSMRLSCAASGFTFTDFYMNWIRQPAGRAPEWLGFFRNIVDGYTTEYNPSVKGRFTISRDNTQNMLYLQMNTLRAEDTATYYCARSGYSSYIYGGTFAYWGQGTLVTVSS
VL: ETVMTQSPTSMSTSIGERVTLNCKASQSVGIHVDWYQQTPGQSPKLLIYGASNRHTGVPDRFTGSGFGRDFTLTISNVEAEDLAVYYCLQYGSIPWTFGGGTKLELK
B18: CL0020215 (antibody, V domains shown)
VH: QVQLQQPGAELVKPGASVKMSCKASGYTFTNYWIMWVKQRPGQGLEWIGDIYPSSGSTNYNEKFKNRATLTVDTSSNTAYMQLSSLTSEDSAVYFCSREGYGISAWGQGTTLTVSS
VL: QIVLTQSPAIMSASPGEKVTITCSASSSVSYMHWFQQKPGTSPKLWIYSTSNLASGVPARFSGSGSGTSCSLTISRMEAEDAATYYCQQRSSFPLTFGAGTKLELK
B19: CL0020111 (antibody, V domains shown)
VH: B18 VH with E10D, M35T, K38Q, S54G, S57N, K65R, N66S, R67K, F95Y
VL: B18 VL with I10F, S24R, Y48F, C70H, S92G, F93Y
B20: CL0020210 (antibody, V domains shown)
VH: QIQLVQSGPELRKPGETVKISCKASGYTFTTYGMSWVKQAPGKGLKWMGWINTYSGLPRHSDDFKGRFAFSLETSASTAYLQINNLKNEDTATYFCAREVYYGSRKTAWFAYWGQGTLVTVSA
VL: DLVMSQSPSSLAVSVGERITMTCKSSQSLLYSNDQKNYLAWYQQIPGQSPKLLLYWASTRESGVPDRFTGSGSGTDFTLTISSVKAEDLAVYFCQQYYNYPPTFGAGTKLELK
B21: CL0020214 (antibody, V domains shown)
VH: QVRLQQSGAELVRPGSSVKLSCKASGYAFSSYWMNWVKQRPGQGLEWIGQIYPGDGDTNYNGNFKGKATLTADNSSSTAYMQLSSLTSEDSAVYFCARRRNGDFGDYAMDYWGQGTSVTVSS
VL: QIVLTQSPAIMSASPGEKVTISCSASSSVSYMCWYQQKPGSSPKPWIYRTSTLASGVPARFSGSGSGTSYSLTISSMEAADAATYYCQHYHSYPFTFGAGTKLELK

Each binder was assayed against mouse TREM2 truncated stalk peptide (aa 149-163) (mouse) (UniProt Q99NH8) (assay: ELISA on biotinylated peptide captured by streptavidin; A450 normalised to isotype control).

With B1 as the binder, how does the fold over background (A450) read?
Its fold over background (A450) is 1.6 fold.

How did the fold over background (A450) turn out when B2 was run?
The fold over background (A450) was 1.2 fold.

B3 was tested. Which fold over background (A450) did it give?
The fold over background (A450) was 1.6 fold.

With B4 as the binder, how does the fold over background (A450) read?
Its fold over background (A450) is 1.2 fold.

B5 was tested. Which fold over background (A450) did it give?
Its fold over background (A450) is 1.3 fold.

Which fold over background (A450) does the source give for B6 here?
Its fold over background (A450) is 1.8 fold.

Which fold over background (A450) does the source give for B7 here?
Its fold over background (A450) is 1.5 fold.

For B8, which fold over background (A450) is on record?
The fold over background (A450) was 1.8 fold.

B9 was tested. Which fold over background (A450) did it give?
Its fold over background (A450) is 1.4 fold.

For B10, which fold over background (A450) is on record?
Its fold over background (A450) is 1.3 fold.

Which fold over background (A450) does the source give for B11 here?
The fold over background (A450) was 1.7 fold.

Which fold over background (A450) does the source give for B12 here?
Its fold over background (A450) is 1.1 fold.

For B13, which fold over background (A450) is on record?
The fold over background (A450) was 0.9 fold.

B14 was tested. Which fold over background (A450) did it give?
Its fold over background (A450) is 1.1 fold.

With B15 as the binder, how does the fold over background (A450) read?
Its fold over background (A450) is 1.2 fold.

For B16, which fold over background (A450) is on record?
The fold over background (A450) was 1.1 fold.

Which fold over background (A450) does the source give for B17 here?
Its fold over background (A450) is 1.2 fold.

Which fold over background (A450) does the source give for B18 here?
Its fold over background (A450) is 1.2 fold.

B19 was tested. Which fold over background (A450) did it give?
The fold over background (A450) was 1.5 fold.

For B20, which fold over background (A450) is on record?
Its fold over background (A450) is 1.6 fold.

For B21, which fold over background (A450) is on record?
Its fold over background (A450) is 1.3 fold.
